Assays:
mouse CD73 protein = target: T1, mouse CD73 protein (mouse, UniProt Q61503 29-549, limits assumed); experiment: SPR Biacore 8K, antibody captured on Protein A/G
T1 construct: Bought protein; also called CD73-mouse
T1 sequence (looked up): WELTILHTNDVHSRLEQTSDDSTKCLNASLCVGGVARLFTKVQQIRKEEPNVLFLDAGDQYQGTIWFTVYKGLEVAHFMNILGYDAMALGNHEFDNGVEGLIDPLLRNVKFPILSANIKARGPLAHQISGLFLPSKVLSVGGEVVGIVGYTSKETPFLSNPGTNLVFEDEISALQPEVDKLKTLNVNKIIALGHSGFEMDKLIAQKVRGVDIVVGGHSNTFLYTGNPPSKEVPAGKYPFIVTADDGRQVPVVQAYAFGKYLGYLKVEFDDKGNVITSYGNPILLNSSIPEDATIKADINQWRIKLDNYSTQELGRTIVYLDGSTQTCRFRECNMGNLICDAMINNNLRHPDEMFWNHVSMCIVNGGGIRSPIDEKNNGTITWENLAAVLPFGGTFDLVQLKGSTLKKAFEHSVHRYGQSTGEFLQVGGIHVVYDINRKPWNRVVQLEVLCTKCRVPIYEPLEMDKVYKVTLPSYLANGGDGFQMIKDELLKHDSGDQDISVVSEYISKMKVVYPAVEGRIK

[1] = target: T2, cynomolgus monkey CD73 protein (cynomolgus monkey, UniProt A0A2K5V5U7 27-547); experiment: SPR Biacore 8K, antibody captured on Protein A/G, antigen in flow
T2 construct: Bought protein; also called CD73-cynomolgus monkey
T2 sequence: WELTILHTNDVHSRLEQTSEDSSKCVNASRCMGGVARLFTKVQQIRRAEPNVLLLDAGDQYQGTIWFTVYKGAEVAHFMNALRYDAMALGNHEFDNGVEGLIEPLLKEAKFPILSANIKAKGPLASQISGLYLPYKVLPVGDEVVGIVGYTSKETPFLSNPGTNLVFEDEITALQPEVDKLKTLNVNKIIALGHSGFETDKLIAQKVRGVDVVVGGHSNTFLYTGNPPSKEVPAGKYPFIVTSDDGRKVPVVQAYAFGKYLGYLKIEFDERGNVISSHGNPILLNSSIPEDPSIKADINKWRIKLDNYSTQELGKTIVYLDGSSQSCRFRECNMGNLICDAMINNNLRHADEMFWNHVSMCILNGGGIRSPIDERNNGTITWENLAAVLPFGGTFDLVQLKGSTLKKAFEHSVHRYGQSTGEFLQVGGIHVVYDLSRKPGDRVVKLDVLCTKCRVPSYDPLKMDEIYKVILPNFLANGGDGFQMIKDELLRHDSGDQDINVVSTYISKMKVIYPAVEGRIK

human CD73-His protein = target: T3, human CD73-His protein (human, UniProt P21589 27-549); experiment: ELISA, biotinylated CD73-His on streptavidin plate
T3 construct: Expressed in HEK-293F with a signal peptide that is not specified; In the ELISAs it was biotinylated with EZ-Link NHS-Biotin (CD73-biotin) and captured on streptavidin; in SPR and the enzyme assay it was used as CD73-His; also called CD73-his antigen; CD73-biotin
T3 sequence: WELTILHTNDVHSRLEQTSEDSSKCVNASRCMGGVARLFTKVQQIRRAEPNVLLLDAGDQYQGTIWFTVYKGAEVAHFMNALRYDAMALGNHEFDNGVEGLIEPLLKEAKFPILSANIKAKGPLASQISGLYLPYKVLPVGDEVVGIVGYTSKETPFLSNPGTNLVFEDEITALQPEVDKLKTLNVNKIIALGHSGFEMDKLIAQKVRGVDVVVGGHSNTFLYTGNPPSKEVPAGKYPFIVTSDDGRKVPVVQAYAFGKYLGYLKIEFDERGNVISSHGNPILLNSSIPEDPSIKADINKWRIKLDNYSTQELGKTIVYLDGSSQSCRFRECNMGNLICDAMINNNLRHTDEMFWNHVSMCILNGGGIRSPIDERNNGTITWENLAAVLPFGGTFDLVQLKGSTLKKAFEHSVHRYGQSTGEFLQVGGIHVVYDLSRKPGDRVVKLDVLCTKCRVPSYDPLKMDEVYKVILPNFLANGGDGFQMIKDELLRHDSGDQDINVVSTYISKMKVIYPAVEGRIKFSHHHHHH
Method: The ELISA plates were coated with SA protein diluted to 1.5 μg/mL in coating buffer (50 mM carbonate coating buffer, pH 9.6) and incubated overnight at 4° C. The supernatant was discarded, and the plates were washed three times with PBST. Then, 5% skimmed milk powder prepared with PBS was added for blocking and the plates were incubated for 2 h at 37° C. After washing the plates once with PBST, CD73-biotin protein (prepared by biotinylating CD73-His protein according to the EZ-Link NHS-Biotin Reagent instructions) was diluted to 0.5 μg/mL and added at 100 μL/well for incubation at room temperature for 1 h. The plates were washed three times with PBST, and the prepared murine-derived monoclonal antibodies against human CD73 were serially diluted with 1% BSA buffer prepared with PBST and added to the ELISA plates at 100 μl/well. The plates were incubated at 37° C. for 1 h. After washing the plates three times with PBST, HRP-labeled goat anti-mouse IgG secondary antibody was added and the plates were incubated for 30 min at 37° C. After washing the plates three times with PBST, the residual droplets were patted dry on absorbent paper as much as possible. Then, 100 μl of TMB color developing solution was added to each well, and the plates were incubated in the dark at room temperature for 5 min for color development. Subsequently, 50 μl of 2M H₂SO₄ stop solution was added to each well to terminate the substrate reaction. The OD values were read at 450 nm using a multimode microplate reader to analyze the binding ability of the tested antibodies to the target antigen human CD73-His.
The binding affinity of various humanized antibodies to human CD73-his protein was measured with reference to Example 3.

B1: 48A11-HuV33 (antibody, human IgG4, V domains shown)
VH: QVQLVQSGAEVKKPGASVKVSCKASGYTFTSYWMHWVRQAPGQGLEWIGEINPSIGRTNYNEKFKSRVTLTRDTSTSTAYMELSSLRSEDTAVYYCARRVYGTMDYWGQGTLVTVSS
VL: DIQMTQSPSSLSASVGDRVTITCKASQDINSYLSWFQQKPGKSPKLLIYRANIWVDGVPSRFSGSGSGQDYTFTISSLQPEDIATYYCLQYDELYTFGQGTKVEIK
notes: Humanized
Mouse CD73 protein
  binding result: no binding
[1]
  Kd: 12.1 nM
  koff: 0.000883 s⁻¹
  kon: 72800 M⁻¹ s⁻¹
Human CD73-His protein
  EC50: 0.069 nM

B2: 56B10-HuV31 (antibody, human IgG4, V domains shown)
VH: QVQLQQSGAEVKKPGASVKVSCKASGYTFTRYYIYWVRQRPGQGLEWIGWIYPGNFNTKYNEKFKGRATLTADTSASTAYMELSSLTSEDTAVYYCARDVYDYAGFAYWGQGTLVTVSS
VL: DIQLTQSPSFLSASVGDRVTITCKASQGVATAVAWYQQKPGQSPKLLIYWASTRHTGVPDRFSGSGSGTEFTLTISSLQPEDFATYYCQQYSSYPWTFGQGTKVEIK
notes: Humanized
Mouse CD73 protein
  binding result: no binding
[1]
  Kd: 7.13 nM
  koff: 0.000712 s⁻¹
  kon: 99900 M⁻¹ s⁻¹
Human CD73-His protein
  EC50: 0.079 nM
